Measured values as given in PMC10992437, “Engineering a norcoclaurine synthase for one-step synthesis of (S)-1-aryl-tetrahydroisoquinolines” (Bioresources and Bioprocessing, 2023).

How the values were obtained:
O=Cc1ccccc1 = test: purified protein; assay type: biochemical, Thalictrum flavum; conditions: co-substrate dopamine (concentration not stated), aldehyde 0.5-50 mM, general assay: HEPES pH 7.5, 20% DMSO, 5 mM ascorbic acid
O=Cc1ccc(-c2ccccc2)cc1 = test: purified protein; assay type: biochemical, Thalictrum flavum; conditions: co-substrate dopamine (concentration not stated), aldehyde 0.5-50 mM, general assay: HEPES pH 7.5, 20% DMSO, 5 mM ascorbic acid

Substance | Km (O=Cc1ccccc1) | Km (O=Cc1ccc(-c2ccccc2)cc1)
TfNCS (norcoclaurine synthase) (Thalictrum flavum subsp. glaucum; L68T/M97V) | 20.1 ± 5.3 mM | 14.6 ± 5.1 mM
TfNCS (norcoclaurine synthase) (Thalictrum flavum subsp. glaucum) | 22.3 ± 6.7 mM | 15.0 ± 4.6 mM
